Source: patent publication US20190134153A1, “IMMUNOMODULATORY EFFECT OF INHALED KINASE INHIBITOR PEPTIDES IN LUNG” (MOERAE MATRIX, INC., priority 2017, published 2019)

Experiments:
Assay in all cases: Kinase Profiling Assay
Assay type in all cases: biochemical
Settings in all cases: 100 μM
Tec(h) activated = molecular target: T1, Tec(h) activated (Homo sapiens, UniProt P42680)
T1 sequence (P42680 1-631): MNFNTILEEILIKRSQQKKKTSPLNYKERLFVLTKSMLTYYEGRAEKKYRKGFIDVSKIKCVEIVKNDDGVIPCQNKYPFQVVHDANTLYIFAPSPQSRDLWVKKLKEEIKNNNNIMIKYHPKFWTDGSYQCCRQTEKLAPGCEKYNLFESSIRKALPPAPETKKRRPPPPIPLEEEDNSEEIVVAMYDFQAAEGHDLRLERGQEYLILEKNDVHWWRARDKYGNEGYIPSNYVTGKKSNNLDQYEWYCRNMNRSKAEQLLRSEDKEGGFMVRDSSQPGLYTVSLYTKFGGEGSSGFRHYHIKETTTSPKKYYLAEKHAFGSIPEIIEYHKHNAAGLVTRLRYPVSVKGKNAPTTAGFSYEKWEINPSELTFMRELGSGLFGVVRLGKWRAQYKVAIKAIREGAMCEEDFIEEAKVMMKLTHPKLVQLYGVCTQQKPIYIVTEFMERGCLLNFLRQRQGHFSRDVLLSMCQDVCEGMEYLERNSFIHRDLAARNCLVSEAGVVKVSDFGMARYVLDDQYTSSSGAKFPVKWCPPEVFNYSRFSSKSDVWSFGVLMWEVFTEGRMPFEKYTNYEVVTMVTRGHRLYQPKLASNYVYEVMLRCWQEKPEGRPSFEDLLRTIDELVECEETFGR

Fes(h) = Fes(h) (Homo sapiens, UniProt P07332)
Chain of Fes(h) (P07332 whole entry): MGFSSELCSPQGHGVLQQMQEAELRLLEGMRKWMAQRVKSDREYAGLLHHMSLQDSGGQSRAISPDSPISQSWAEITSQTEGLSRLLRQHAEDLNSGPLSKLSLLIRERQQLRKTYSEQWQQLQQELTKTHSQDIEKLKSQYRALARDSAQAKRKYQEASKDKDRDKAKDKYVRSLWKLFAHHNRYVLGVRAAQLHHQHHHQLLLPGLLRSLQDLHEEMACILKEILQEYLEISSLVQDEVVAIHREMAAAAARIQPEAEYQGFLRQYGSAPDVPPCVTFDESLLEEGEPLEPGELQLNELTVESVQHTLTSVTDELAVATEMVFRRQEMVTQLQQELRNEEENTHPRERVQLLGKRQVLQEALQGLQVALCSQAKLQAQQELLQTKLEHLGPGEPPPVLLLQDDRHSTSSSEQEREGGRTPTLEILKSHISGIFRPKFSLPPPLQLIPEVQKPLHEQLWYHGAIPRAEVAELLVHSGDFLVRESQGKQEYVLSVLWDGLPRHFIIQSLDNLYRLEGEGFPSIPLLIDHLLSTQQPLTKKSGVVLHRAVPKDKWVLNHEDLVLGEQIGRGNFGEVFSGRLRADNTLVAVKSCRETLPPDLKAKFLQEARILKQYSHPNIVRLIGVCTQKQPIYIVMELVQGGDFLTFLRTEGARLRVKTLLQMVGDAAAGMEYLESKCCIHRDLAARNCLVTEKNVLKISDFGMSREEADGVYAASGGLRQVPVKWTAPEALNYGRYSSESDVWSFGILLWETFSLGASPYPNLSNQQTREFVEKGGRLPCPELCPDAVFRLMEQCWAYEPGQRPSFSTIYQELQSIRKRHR

MST1(h) = molecular target: T2, MST1(h) (Homo sapiens, UniProt Q13043)
T2 sequence (Q13043 1-487): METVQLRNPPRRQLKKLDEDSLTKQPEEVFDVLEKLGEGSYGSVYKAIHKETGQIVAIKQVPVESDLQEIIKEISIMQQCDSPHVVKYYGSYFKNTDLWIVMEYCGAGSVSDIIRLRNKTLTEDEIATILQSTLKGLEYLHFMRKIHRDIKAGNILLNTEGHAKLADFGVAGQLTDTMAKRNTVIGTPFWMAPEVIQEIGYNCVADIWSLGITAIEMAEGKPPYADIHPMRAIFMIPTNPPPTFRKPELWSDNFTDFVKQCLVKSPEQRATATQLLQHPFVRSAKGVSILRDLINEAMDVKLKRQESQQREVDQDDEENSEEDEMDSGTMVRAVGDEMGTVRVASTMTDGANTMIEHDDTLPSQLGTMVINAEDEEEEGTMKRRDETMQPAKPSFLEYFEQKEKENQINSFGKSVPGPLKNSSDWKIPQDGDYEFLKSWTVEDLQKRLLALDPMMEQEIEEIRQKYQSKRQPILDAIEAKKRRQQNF

FGFR2(h) = FGFR2(h) (Homo sapiens, UniProt P21802)
SRPK2(h) = SRPK2(h) (Homo sapiens, UniProt P78362)
Chain of SRPK2(h) (P78362 whole entry): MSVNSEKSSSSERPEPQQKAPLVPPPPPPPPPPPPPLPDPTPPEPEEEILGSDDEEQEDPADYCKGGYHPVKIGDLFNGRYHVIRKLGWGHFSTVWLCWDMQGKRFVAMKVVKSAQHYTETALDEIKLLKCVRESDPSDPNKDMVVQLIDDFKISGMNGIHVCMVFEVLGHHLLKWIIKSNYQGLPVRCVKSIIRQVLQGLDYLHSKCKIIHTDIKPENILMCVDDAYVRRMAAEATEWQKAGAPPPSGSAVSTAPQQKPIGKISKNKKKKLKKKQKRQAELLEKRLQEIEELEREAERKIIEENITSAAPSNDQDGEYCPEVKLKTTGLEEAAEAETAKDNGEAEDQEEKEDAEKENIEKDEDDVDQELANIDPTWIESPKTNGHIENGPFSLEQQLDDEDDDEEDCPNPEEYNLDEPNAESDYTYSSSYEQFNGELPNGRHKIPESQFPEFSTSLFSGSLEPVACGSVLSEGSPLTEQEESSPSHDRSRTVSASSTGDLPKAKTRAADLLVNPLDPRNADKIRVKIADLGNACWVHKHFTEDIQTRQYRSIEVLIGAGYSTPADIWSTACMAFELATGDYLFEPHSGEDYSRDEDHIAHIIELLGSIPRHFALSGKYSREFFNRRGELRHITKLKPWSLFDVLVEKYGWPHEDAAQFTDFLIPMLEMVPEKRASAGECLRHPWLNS

TLK2(h) = TLK2(h) (Homo sapiens, UniProt Q86UE8)
Chain of TLK2(h) (Q86UE8 whole entry): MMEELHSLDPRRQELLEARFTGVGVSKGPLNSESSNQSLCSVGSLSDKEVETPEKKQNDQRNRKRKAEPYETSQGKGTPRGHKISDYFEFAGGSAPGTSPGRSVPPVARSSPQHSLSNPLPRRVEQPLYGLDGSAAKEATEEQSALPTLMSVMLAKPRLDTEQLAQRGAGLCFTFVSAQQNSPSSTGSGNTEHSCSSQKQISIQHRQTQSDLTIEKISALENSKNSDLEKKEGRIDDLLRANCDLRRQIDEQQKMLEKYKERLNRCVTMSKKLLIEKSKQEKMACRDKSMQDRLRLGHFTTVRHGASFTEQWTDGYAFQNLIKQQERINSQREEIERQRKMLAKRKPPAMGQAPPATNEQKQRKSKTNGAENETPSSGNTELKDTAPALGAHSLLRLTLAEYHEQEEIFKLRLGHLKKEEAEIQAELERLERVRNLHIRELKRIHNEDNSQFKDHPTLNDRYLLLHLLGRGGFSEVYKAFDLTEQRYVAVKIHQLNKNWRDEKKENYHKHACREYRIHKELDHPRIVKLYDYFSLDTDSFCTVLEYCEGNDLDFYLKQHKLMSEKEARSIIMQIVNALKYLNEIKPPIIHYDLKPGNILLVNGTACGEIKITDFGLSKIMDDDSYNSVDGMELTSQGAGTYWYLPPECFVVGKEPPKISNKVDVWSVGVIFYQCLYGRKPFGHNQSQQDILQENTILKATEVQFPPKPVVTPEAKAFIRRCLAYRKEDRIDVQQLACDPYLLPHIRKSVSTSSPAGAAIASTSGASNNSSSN

PKBα(h) = PKBα(h) (Homo sapiens, UniProt P31749)
Chain of PKBα(h) (P31749 whole entry): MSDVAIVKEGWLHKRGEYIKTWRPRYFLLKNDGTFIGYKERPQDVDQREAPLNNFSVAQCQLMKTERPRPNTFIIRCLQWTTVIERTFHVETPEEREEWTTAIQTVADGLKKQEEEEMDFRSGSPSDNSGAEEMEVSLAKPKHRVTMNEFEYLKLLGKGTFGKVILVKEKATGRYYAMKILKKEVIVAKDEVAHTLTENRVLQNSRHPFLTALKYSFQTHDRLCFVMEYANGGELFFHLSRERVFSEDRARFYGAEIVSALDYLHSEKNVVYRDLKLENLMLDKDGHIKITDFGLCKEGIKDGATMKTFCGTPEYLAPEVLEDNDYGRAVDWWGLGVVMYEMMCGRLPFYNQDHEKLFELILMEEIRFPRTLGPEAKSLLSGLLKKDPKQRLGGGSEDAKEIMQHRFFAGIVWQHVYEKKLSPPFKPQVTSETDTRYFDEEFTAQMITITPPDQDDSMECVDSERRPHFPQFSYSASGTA

PKCθ(h) = PKCθ(h) (Homo sapiens, UniProt Q04759)
Chain of PKCθ(h) (Q04759 whole entry): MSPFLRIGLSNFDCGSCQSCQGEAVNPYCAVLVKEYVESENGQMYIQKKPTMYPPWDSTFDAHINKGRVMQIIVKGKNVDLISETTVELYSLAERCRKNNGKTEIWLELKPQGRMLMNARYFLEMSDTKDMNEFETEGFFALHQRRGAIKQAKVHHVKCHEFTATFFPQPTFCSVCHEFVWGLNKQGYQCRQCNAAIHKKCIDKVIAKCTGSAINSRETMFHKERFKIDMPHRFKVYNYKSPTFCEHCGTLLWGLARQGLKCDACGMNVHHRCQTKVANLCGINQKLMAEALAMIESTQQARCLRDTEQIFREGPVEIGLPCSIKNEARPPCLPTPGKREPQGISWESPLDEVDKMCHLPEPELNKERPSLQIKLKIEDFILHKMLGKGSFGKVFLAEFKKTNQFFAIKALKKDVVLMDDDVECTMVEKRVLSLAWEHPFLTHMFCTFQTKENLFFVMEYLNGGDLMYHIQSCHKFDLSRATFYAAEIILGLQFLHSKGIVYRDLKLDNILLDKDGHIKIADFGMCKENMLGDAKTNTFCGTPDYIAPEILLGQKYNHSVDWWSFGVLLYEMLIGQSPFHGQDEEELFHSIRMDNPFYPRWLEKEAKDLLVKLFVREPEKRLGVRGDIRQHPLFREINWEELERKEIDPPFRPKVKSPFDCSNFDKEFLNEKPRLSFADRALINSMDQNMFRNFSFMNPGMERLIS

Plk3(h) = Plk3(h) (Homo sapiens, UniProt Q9H4B4)
Chain of Plk3(h) (Q9H4B4 whole entry): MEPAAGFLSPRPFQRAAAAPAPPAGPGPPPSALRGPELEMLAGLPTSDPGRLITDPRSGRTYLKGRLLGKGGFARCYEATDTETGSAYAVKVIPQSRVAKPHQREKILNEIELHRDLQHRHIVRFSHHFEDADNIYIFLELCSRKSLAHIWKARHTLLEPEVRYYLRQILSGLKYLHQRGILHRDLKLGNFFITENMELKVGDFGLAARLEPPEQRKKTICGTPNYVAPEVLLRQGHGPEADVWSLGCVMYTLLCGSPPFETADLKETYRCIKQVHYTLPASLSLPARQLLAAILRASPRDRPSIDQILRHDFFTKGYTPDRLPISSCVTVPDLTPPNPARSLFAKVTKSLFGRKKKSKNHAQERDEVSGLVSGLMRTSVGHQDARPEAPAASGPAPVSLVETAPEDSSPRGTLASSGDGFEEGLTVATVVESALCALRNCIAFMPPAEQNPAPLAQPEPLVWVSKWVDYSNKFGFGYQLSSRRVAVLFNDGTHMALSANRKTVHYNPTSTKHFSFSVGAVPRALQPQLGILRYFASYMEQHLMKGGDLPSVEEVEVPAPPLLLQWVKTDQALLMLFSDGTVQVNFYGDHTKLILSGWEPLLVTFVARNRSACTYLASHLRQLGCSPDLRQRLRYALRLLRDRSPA

BrSK2(h) = molecular target: T3, BrSK2(h) (Homo sapiens, UniProt Q8IWQ3)
T3 sequence (Q8IWQ3 1-736): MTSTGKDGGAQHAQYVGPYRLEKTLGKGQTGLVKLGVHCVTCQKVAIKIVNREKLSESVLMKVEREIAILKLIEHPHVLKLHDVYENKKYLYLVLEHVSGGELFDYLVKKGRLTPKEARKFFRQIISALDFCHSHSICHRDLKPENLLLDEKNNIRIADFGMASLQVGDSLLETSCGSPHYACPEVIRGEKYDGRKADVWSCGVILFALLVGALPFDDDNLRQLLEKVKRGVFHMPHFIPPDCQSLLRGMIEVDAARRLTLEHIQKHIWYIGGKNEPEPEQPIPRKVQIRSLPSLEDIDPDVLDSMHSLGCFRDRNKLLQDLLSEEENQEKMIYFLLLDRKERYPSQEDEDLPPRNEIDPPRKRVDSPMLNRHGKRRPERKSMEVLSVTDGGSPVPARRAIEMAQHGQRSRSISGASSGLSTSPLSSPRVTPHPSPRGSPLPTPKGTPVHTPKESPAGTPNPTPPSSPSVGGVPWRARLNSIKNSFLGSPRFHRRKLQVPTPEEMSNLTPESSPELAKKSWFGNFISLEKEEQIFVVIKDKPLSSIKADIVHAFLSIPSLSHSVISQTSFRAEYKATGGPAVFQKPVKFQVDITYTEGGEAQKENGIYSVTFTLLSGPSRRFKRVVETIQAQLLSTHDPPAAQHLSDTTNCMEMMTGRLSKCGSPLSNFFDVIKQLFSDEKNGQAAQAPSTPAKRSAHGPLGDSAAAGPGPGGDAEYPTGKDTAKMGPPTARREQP

cKit(D816H)(h) = cKit(D816H)(h) (Homo sapiens, UniProt P10721, D816H)
LIMK1(h) = LIMK1(h) (Homo sapiens, UniProt P53667)
Chain of LIMK1(h) (P53667 whole entry): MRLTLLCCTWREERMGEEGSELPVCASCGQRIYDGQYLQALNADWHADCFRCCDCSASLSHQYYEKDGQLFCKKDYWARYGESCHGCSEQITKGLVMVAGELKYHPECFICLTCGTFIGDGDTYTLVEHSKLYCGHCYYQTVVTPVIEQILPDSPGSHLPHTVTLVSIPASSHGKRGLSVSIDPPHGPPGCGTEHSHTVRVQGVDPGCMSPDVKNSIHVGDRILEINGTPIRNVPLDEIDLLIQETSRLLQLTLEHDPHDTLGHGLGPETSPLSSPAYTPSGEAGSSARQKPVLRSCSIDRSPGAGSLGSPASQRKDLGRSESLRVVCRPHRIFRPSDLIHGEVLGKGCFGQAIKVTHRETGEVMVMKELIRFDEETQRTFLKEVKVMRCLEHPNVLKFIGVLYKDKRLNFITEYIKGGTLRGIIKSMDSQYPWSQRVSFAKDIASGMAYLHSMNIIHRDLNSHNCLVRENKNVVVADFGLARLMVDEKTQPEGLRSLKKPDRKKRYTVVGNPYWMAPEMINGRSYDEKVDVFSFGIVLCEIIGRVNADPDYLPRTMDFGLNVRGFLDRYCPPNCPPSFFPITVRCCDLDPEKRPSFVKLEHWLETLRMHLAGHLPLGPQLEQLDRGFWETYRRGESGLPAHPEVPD

| Sequence | % activity (Tec(h) activated) [%] | % activity (Fes(h)) [%] | % activity (MST1(h)) [%] | % activity (FGFR2(h)) [%] | % activity (SRPK2(h)) [%] | % activity (TLK2(h)) [%] | % activity (PKBα(h)) [%] | % activity (PKCθ(h)) [%] | % activity (Plk3(h)) [%] | % activity (BrSK2(h)) [%] | % activity (cKit(D816H)(h)) [%] | % activity (LIMK1(h)) [%] |
| --- | --- | --- | --- | --- | --- | --- | --- | --- | --- | --- | --- | --- |
| YARAAARQARAKALNRQLGVA [MMI-0200] | 77 | 74 | 72 | 73 | 100 | 129 | 110 | 101 | – | – | – | – |
| KAFAKLAARLYRKALARQLGVAA [MMI-0400] | 29 | 16 | 6 | 18 | 97 | 151 | 67 | 76 | 129 | 86 | 143 | 92 |
| HRRIKAWLKKIKALARQLGVAA [MMI-0500] | 33 | 23 | 3 | 12 | 80 | 133 | 30 | 62 | 122 | 84 | 194 | 87 |
| FAKLAARLYRKALARQLGVAA [MMI-0300] | 56 | 20 | 14 | 14 | – | – | 57 | 88 | 127 | 83 | 126 | 88 |
